Laboratory results: patent US20160317644A1
Read-outs that look alike come from different tables or passages of the source.

Tests used:
[1] = target: transmembrane proteins of the replication complex; experiment: cell-based or functional assay
[2] = target: transmembrane proteins of the replication complex; experiment: cell-based or functional assay; remark: listed apart in the source

## DEN2 NS1 F160A (from UniProt P29990 776-1127)
[1]
  Plaque size: 1 mm
  Titer (PFU/mL): 6000 PFU/mL

B1: Dengue virus type 2 (DEN2; 16681) nonstructural protein 1 (NS1), recombinant, full-length, glycosylated, P29990 776-1127 (protein)
chain: DSGCVVSWKNKELKCGSGIFITDNVHTWTEQYKFQPESPSKLASAIQKAHEEGICGIRSVTRLENLMWKQITPELNHILSENEVKLTIMTGDIKGIMQAGKRSLRPQPTELKYSWKTWGKAKMLSTESHNQTFLIDGPETAECPNTNRAWNSLEVEDYGFGVFTTNIWLKLKEKQDVFCDSKLMSAAIKDNRAVHADMGYWIESALNDTWKIEKASFIEVKNCHWPKSHTLWSNGVLESEMIIPKNLAGPVSQHNYRPGYHTQITGPWHLGKLEMDFDFCDGTTVVVTEDCGNRGPSLRTTTASGKLITEWCCRSCTLPPLRYRGEDGCWYGMEIRPLKEKEENLVNSLVTA
[2]
  Plaque size: 3 mm
  Titer (PFU/mL): 4.8e+06 PFU/mL
